# According to article PMC5136324 (Molecular cancer therapeutics, 2016):
# Ends that are not written are not given here. * marks the point of attachment. FITC = O=C1OC2(c3ccc(O)cc3Oc3cc(O)ccc32)c2ccc(NC(=S)*)cc21
# Biological target: AR ligand binding domain (residues 670-920), biotinylated, N-terminal (His)6-avidin tag (human, UniProt P10275 670-920, biotin (biotinylated form))
# Assay: FRET or BRET
binder,measurement,value
{FITC}-MPQDLRSPARTPPSEEDSAEA [FITC-labelled SGTA peptide (FITC-MPQDLRSPARTPPSEEDSAEA)],binding result,binds
